Reference: patent publication US20220363757A1

Assays:
Experiment in all cases: SPR, Fab over captured mutant LAG-3-Fc
[1] = biological target: human LAG-3 domain 1-2 Fc fusion, point mutation #50 P106A (human) (UniProt P18627)
[2] = biological target: human LAG-3 domain 1-2 Fc fusion, point mutation #78 R154A (human) (UniProt P18627)
[3] = biological target: human LAG-3 domain 1-2 Fc fusion, point mutation #52 G108A (human) (UniProt P18627)
[4] = biological target: human LAG-3 domain 1-2 Fc fusion, chimeric construct #4 (mutated region AA 40-47) (human) (UniProt P18627)
Chain of human LAG-3 domain 1-2 Fc fusion, chimeric construct #4 (mutated region AA 40-47) (human) (P18627 other isoform, or with tags, fused parts or gaps mutant): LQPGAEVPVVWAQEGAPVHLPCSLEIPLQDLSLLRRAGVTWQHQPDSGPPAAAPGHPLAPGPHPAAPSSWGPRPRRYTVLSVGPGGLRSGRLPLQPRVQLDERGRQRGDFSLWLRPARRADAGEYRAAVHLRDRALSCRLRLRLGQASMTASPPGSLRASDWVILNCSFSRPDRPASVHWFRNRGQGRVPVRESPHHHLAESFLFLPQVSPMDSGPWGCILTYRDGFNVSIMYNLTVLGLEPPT

[5] = biological target: human LAG-3 domain 1-2 Fc fusion, point mutation #70 G130A (human) (UniProt P18627)
Chain of human LAG-3 domain 1-2 Fc fusion, point mutation #70 G130A (human) (P18627 23-266 G130A): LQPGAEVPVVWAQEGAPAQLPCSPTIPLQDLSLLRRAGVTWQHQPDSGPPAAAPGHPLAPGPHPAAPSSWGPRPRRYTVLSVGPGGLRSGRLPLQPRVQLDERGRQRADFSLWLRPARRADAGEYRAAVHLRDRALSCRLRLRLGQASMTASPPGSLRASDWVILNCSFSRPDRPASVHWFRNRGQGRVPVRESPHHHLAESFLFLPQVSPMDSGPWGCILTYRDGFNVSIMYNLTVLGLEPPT

[6] = biological target: human LAG-3 domain 1-2 Fc fusion, chimeric construct #21 (mutated region AA 128-137) (human) (UniProt P18627)
Chain of human LAG-3 domain 1-2 Fc fusion, chimeric construct #21 (mutated region AA 128-137) (human) (P18627 23-266, stated change not applied): as the sequence (P18627 23-266 G130A) above, with A108G counted along it

[7] = biological target: human LAG-3 domain 1-2 Fc fusion, point mutation #35 A88S (human) (UniProt P18627)
[8] = biological target: human LAG-3 domain 1-2 Fc fusion, point mutation #1 A40S (human) (UniProt P18627)
[9] = biological target: human LAG-3 domain 1-2 Fc fusion, point mutation #66 G126A (human) (UniProt P18627)
Chain of human LAG-3 domain 1-2 Fc fusion, point mutation #66 G126A (human) (P18627 23-266 G126A): as the sequence (P18627 23-266 G130A) above, with G104A, A108G counted along it

[10] = biological target: human LAG-3 domain 1-2 Fc fusion, point mutation #37 S90A (human) (UniProt P18627)
[11] = biological target: human LAG-3 domain 1-2 Fc fusion, point mutation #4 S45A (human) (UniProt P18627)
[12] = biological target: human LAG-3 domain 1-2 Fc fusion, point mutation #31 P84A (human) (UniProt P18627)
Chain of human LAG-3 domain 1-2 Fc fusion, point mutation #31 P84A (human) (P18627 23-266 P84A): as the sequence (P18627 23-266 G130A) above, with P62A, A108G counted along it

[13] = biological target: human LAG-3 domain 1-2 Fc fusion, point mutation #60 P118A (human) (UniProt P18627)
[14] = biological target: human LAG-3 domain 1-2 Fc fusion, chimeric construct #10 (mutated region AA 70-77) (human) (UniProt P18627)
[15] = biological target: human LAG-3 domain 1-2 Fc fusion, point mutation #75 R141A (human) (UniProt P18627)
Chain of human LAG-3 domain 1-2 Fc fusion, point mutation #75 R141A (human) (P18627 23-266 R141A): as the sequence (P18627 23-266 G130A) above, with A108G, R119A counted along it

[16] = biological target: human LAG-3 domain 1-2 Fc fusion, point mutation #12 R57A (human) (UniProt P18627)
Chain of human LAG-3 domain 1-2 Fc fusion, point mutation #12 R57A (human) (P18627 23-266 R57A): as the sequence (P18627 23-266 G130A) above, with R35A, A108G counted along it

[17] = biological target: human LAG-3 domain 1-2 Fc fusion, point mutation #43 P96A (human) (UniProt P18627)
Chain of human LAG-3 domain 1-2 Fc fusion, point mutation #43 P96A (human) (P18627 23-266 P96A): as the sequence (P18627 23-266 G130A) above, with P74A, A108G counted along it

[18] = biological target: human LAG-3 domain 1-2 Fc fusion, chimeric construct #23 (mutated region AA 148-152) (human) (UniProt P18627)
Chain of human LAG-3 domain 1-2 Fc fusion, chimeric construct #23 (mutated region AA 148-152) (human) (P18627 other isoform, or with tags, fused parts or gaps mutant): as the sequence (P18627 23-266 G130A) above, with A108G, R126H, A128F, H130R counted along it

[19] = biological target: human LAG-3 domain 1-2 Fc fusion, chimeric construct #3 (mutated region AA 40-41) (human) (UniProt P18627)
Chain of human LAG-3 domain 1-2 Fc fusion, chimeric construct #3 (mutated region AA 40-41) (human) (P18627 other isoform, or with tags, fused parts or gaps mutant): as the sequence (P18627 23-266 G130A) above, with A18V, Q19H, A108G counted along it

[20] = biological target: human LAG-3 domain 1-2 Fc fusion, chimeric construct #27 (mutated region AA 161-166) (human) (UniProt P18627)
[21] = biological target: human LAG-3 domain 1-2 Fc fusion, point mutation #57 R113A (human) (UniProt P18627)
[22] = biological target: human LAG-3 domain 1-2 Fc fusion, chimeric construct #7 (mutated region AA 53-60) (human) (UniProt P18627)
Chain of human LAG-3 domain 1-2 Fc fusion, chimeric construct #7 (mutated region AA 53-60) (human) (P18627 other isoform, or with tags, fused parts or gaps mutant): as the sequence (P18627 23-266 G130A) above, with L31P, S32N, L33F, A37G, G38W, A108G counted along it

[23] = biological target: human LAG-3 domain 1-2 Fc fusion, point mutation #25 H78A (human) (UniProt P18627)
[24] = biological target: human LAG-3 domain 1-2 Fc fusion, point mutation #9 D52A (human) (UniProt P18627)
Chain of human LAG-3 domain 1-2 Fc fusion, point mutation #9 D52A (human) (P18627 23-266 D52A): as the sequence (P18627 23-266 G130A) above, with D30A, A108G counted along it

[25] = biological target: human LAG-3 domain 1-2 Fc fusion, chimeric construct #18 (mutated region AA 114-119) (human) (UniProt P18627)
[26] = biological target: human LAG-3 domain 1-2 Fc fusion, point mutation #14 T62A (human) (UniProt P18627)
Chain of human LAG-3 domain 1-2 Fc fusion, point mutation #14 T62A (human) (P18627 23-266 T62A): as the sequence (P18627 23-266 G130A) above, with T40A, A108G counted along it

[27] = biological target: human LAG-3 domain 1-2 Fc fusion, chimeric construct #25 (mutated region AA 154-158) (human) (UniProt P18627)
[28] = biological target: human LAG-3 domain 1-2 Fc fusion, chimeric construct #9 (mutated region AA 66-71) (human) (UniProt P18627)
[29] = biological target: human LAG-3 domain 1-2 Fc fusion, point mutation #7 P49A (human) (UniProt P18627)
Chain of human LAG-3 domain 1-2 Fc fusion, point mutation #7 P49A (human) (P18627 23-266 P49A): as the sequence (P18627 23-266 G130A) above, with P27A, A108G counted along it

[30] = biological target: human LAG-3 domain 1-2 Fc fusion, point mutation #19 D68A (human) (UniProt P18627)
Chain of human LAG-3 domain 1-2 Fc fusion, point mutation #19 D68A (human) (P18627 23-266 D68A): as the sequence (P18627 23-266 G130A) above, with D46A, A108G counted along it

[31] = biological target: human LAG-3 domain 1-2 Fc fusion, point mutation #69 R129A (human) (UniProt P18627)
Chain of human LAG-3 domain 1-2 Fc fusion, point mutation #69 R129A (human) (P18627 23-266 R129A): as the sequence (P18627 23-266 G130A) above, with R107A, A108G counted along it

[32] = biological target: human LAG-3 domain 1-2 Fc fusion, point mutation #32 H85A (human) (UniProt P18627)
Chain of human LAG-3 domain 1-2 Fc fusion, point mutation #32 H85A (human) (P18627 23-266 H85A): as the sequence (P18627 23-266 G130A) above, with H63A, A108G counted along it

[33] = biological target: human LAG-3 domain 1-2 Fc fusion, chimeric construct #15 (mutated region AA 95-100) (human) (UniProt P18627)
Chain of human LAG-3 domain 1-2 Fc fusion, chimeric construct #15 (mutated region AA 95-100) (human) (P18627 other isoform, or with tags, fused parts or gaps mutant): as the sequence (P18627 23-266 G130A) above, with R73G, R76S, T78V, A108G counted along it

Chain of human LAG-3 domain 1-2 Fc fusion, point mutation #52 G108A (human) (P18627 23-266 G108A): as the sequence (P18627 23-266 G130A) above, with G86A, A108G counted along it

With Fab fragment of 25F7-Lag3.5 analogue as the substance, how does the KD mutant/KD wild type [1] read?
Its KD mutant/KD wild type is 1 fold.

And the KD mutant/KD wild type [2]?
The KD mutant/KD wild type was 0.8 fold.

And the KD mutant/KD wild type [3]?
Its KD mutant/KD wild type is 0.9 fold.

What about the KD mutant/KD wild type [4] of the same substance?
The KD mutant/KD wild type was 1.3 fold.

What about the KD mutant/KD wild type [5] of the same substance?
Its KD mutant/KD wild type is 1.3 fold.

And the KD mutant/KD wild type [6]?
The KD mutant/KD wild type was 1.4 fold.

And the KD mutant/KD wild type [7]?
The KD mutant/KD wild type was 3.5 fold.

And the KD mutant/KD wild type [8]?
Its KD mutant/KD wild type is 1.1 fold.

And the KD mutant/KD wild type [9]?
Its KD mutant/KD wild type is 0.9 fold.

And the KD mutant/KD wild type [10]?
Its KD mutant/KD wild type is 1 fold.

What about the KD mutant/KD wild type [11] of the same substance?
The KD mutant/KD wild type was 1 fold.

What about the KD mutant/KD wild type [12] of the same substance?
The KD mutant/KD wild type was 0.6 fold.

What about the KD mutant/KD wild type [13] of the same substance?
The KD mutant/KD wild type was 0.8 fold.

And the KD mutant/KD wild type [14]?
The KD mutant/KD wild type was 1 fold.

What about the KD mutant/KD wild type [15] of the same substance?
Its KD mutant/KD wild type is 0.8 fold.

And the KD mutant/KD wild type [16]?
The KD mutant/KD wild type was 0.7 fold.

What about the KD mutant/KD wild type [17] of the same substance?
The KD mutant/KD wild type was 0.7 fold.

What about the KD mutant/KD wild type [18] of the same substance?
The KD mutant/KD wild type was 0.8 fold.

And the KD mutant/KD wild type [19]?
Its KD mutant/KD wild type is 1.3 fold.

And the KD mutant/KD wild type [20]?
Its KD mutant/KD wild type is 0.8 fold.

What about the KD mutant/KD wild type [21] of the same substance?
The KD mutant/KD wild type was 0.8 fold.

What about the KD mutant/KD wild type [22] of the same substance?
The KD mutant/KD wild type was 1.4 fold.

And the KD mutant/KD wild type [23]?
The KD mutant/KD wild type was 0.8 fold.

And the KD mutant/KD wild type [24]?
The KD mutant/KD wild type was 0.8 fold.

And the KD mutant/KD wild type [25]?
Its KD mutant/KD wild type is 0.8 fold.

And the KD mutant/KD wild type [26]?
The KD mutant/KD wild type was 1.3 fold.

And the KD mutant/KD wild type [27]?
The KD mutant/KD wild type was 0.7 fold.

What about the KD mutant/KD wild type [28] of the same substance?
The KD mutant/KD wild type was 1.3 fold.

What about the KD mutant/KD wild type [29] of the same substance?
The KD mutant/KD wild type was 1.1 fold.

And the KD mutant/KD wild type [30]?
Its KD mutant/KD wild type is 0.9 fold.

What about the KD mutant/KD wild type [31] of the same substance?
The KD mutant/KD wild type was 1.2 fold.

And the KD mutant/KD wild type [32]?
The KD mutant/KD wild type was 14.1 fold.

And the KD mutant/KD wild type [33]?
The KD mutant/KD wild type was 1.5 fold.
